Measured values taken from paper doi:10.1101/2025.11.04.686606, “The C-terminal intrinsically disordered region of a fungal LPMO binds copper and displays anti-fungal properties” (bioRxiv, 2025).

What was measured:
[1] = target: the molecule itself; experiment: SEC-MALLS; Superdex200 10/300 GL Increase, 50 mM MES pH 6.5, 150 mM NaCl; protein conjugate analysis for glycans
[2] = target: the molecule itself; experiment: SAXS; P3 at 2 mg/mL; conformational ensembles from 1 us MD simulations refined against SAXS data (Bayesian maximum entropy)

Row | Protein | stoichiometry N [1] | stoichiometry N [2]
1 | PcoAA14A_FL, full-length AA14A lytic polysaccharide monooxygenase from Pycnoporus coccineus (enzyme, UniProt A0A2I6QAZ5 22-428, looked up, glycosylated (glycans 34% of the molar mass by SEC-MALLS), PcoAA14A, AA14 family LPMO of Pycnoporus coccineus (syn. Trametes coccinea), Genbank KY769369; catalytic domain followed by a dCTR of 137 residues; theoretical mass 46 kDa; Expressed from pPICZalphaA; source: Pichia pastoris SuperMan5, secreted, purified (HisTrap); not shown: His6, C-terminal, kept) HAAFWDKSMYGFNVTAQTFPYDNRPQVPLYNMTFDQWWFHGHKDYPPNEGDFFELPAGGEVNSIISCDKGATPFYESSPGGDSGYGSNSPCPGQPMSEYHTTGIDDVKGCCMAIAYKPDVNDVQPDDFVVFSCNSTCVWEMNTKFEIPKLPACPEGGCHCAWFWIHSYDSGAEQIYMNGFKCKVTGDVGTQPLGKPAVPRRCGADPDHGKPDPTPGNCTIGAKTPMYWYQREGNNMFEDTYDAPYYNPLYGFNDGAQNDIFMDGVIASLASSGTGSSPTSTVDSSSSAAAASTSYPAQPTSSTQDAPGSSAYPSSSSDSVNSPTTQPYPASSASSTSEAQTTPAAVPTSVATEASSSPIASTTVDEAVVSSSTVGSINPTRSCKPRPSGVAAQKKKRKHARHLHNAH | 2 | 
2 | CKPRPSGVAAQKKKRKHARHLHNAH (peptide, UniProt A0A2I6QAZ5 404-428, looked up, the last 25 residues of PcoAA14A of Pycnoporus coccineus, starting with a Cys corresponding to Cys404; Unlabelled peptide in EPR and SAXS; the 5-FAM labelled form was used only on fungal spores; source: synthetic peptide, bought: GenScript) [P3 peptide, last 25 residues of PcoAA14A_dCTR] |  | 2
